This note sets out measurements from patent publication US20190002841A1.

In test [1] the target is AAV3B capsid (vector AAV2/3B.CB7.CI.ffluciferase.RBG) (Adeno-associated virus 3B). Kind of test: AVB Sepharose HiTrap column, share washed off in wash 1.
In test [2] the target is AAV3B-NKDKLN capsid (AAV3B with SPAKFA replaced by NKDKLN of AAV9) (Adeno-associated virus 3B). The test is described as above.
In test [3] the target is AAVrh64R1 capsid (vectors AAV2/rh.64R1.CMV.PI.EGFP.WPRE.bGH and rh.64R1 with CB7.CI.ffluciferase.RBG) (Adeno-associated virus rh.64R1). Kind of test: AVB Sepharose HiTrap column, qPCR of fractions; mix rh.64R1+rh.10.
In test [4] the target is AAV3B capsid (vector AAV2/3B.CB7.CI.ffluciferase.RBG) (Adeno-associated virus 3B). Kind of test: AVB Sepharose HiTrap column, qPCR of fractions; clarified AAV3B product.
For test [5] the target is unchanged. Kind of test: AVB Sepharose HiTrap column, share washed off in wash 2 (1 M NaCl).
Test [6] addresses AAV3B-NKDKLN capsid (AAV3B with SPAKFA replaced by NKDKLN of AAV9) (Adeno-associated virus 3B). The test is described as above.
Test [7] has as its target AAVhu37 capsid (vector AAV2/hu.37.TBG.EGFP.bGH) (Adeno-associated virus hu.37). Kind of test: AVB Sepharose HiTrap column, qPCR of fractions; mix AAV8+hu.37+rh.10.
Test [8] has as its target AAV8 capsid (vectors AAV2/8.CMV.ffluciferase.SV40 and AAV8 with CB7.CI.ffluciferase.RBG) (Adeno-associated virus 8). The test is described as above.
Test [9] has as its target AAV3B capsid (vector AAV2/3B.CB7.CI.ffluciferase.RBG) (Adeno-associated virus 3B). Kind of test: AVB Sepharose HiTrap column, unbound share in flow-through.
The target of test [10] is AAV3B-NKDKLN capsid (AAV3B with SPAKFA replaced by NKDKLN of AAV9) (Adeno-associated virus 3B). The test is described as above.
Test [11] has as its target AAV3B capsid (vector AAV2/3B.CB7.CI.ffluciferase.RBG) (Adeno-associated virus 3B). Kind of test: AVB Sepharose HiTrap column, AAV3B against AAV3B-NKDKLN.
For test [12], the target named is AAV3B-NKDKLN capsid (AAV3B with SPAKFA replaced by NKDKLN of AAV9) (Adeno-associated virus 3B). Described as above.
Test [13] addresses AAVrh10 capsid (vector AAV2/rh.10.CMV.PI.Cre.RBG) (Adeno-associated virus rh.10). Kind of test: AVB Sepharose HiTrap column, qPCR of fractions; average of two runs.
Test [14] concerns the target AAV9-SPAKFA capsid (AAV9 with NKDKLN replaced by SPAKFA) (Adeno-associated virus 9). Kind of test: AVB Sepharose HiTrap column, clarified supernatant, wild type against SPAKFA mutant.
The target of test [15] is AAV9 capsid (vector with CB7.CI.ffluciferase.RBG) (Adeno-associated virus 9). The description is as above.
The target of test [16] is AAV8-SPAKFA capsid (AAV8 with NQSKLN replaced by SPAKFA) (Adeno-associated virus 8). Described as above.
The target in test [17] is AAVrh64R1 capsid (vectors AAV2/rh.64R1.CMV.PI.EGFP.WPRE.bGH and rh.64R1 with CB7.CI.ffluciferase.RBG) (Adeno-associated virus rh.64R1). Described as above.
In test [18] the target is AAV8 capsid (vectors AAV2/8.CMV.ffluciferase.SV40 and AAV8 with CB7.CI.ffluciferase.RBG) (Adeno-associated virus 8). The description is as above.
Test [19] addresses rh.64R1-SPAKFA capsid (rh.64R1 with NQAKLN replaced by SPAKFA) (Adeno-associated virus rh.64R1). Described as above.

As for “AVB Sepharose High Performance affinity resin ligand (14 kD fragment from a single chain llama antibody expressed in yeast) (VHH)”, the % of vector in the wash 1 (W1) fraction is 0% in test [1] and 0.1% in test [2]. Further, the % of loaded vector genome in the elution fraction stood at 22% in test [3], 82% in test [7], 20% in [8] and 84% in test [13]. In [4], the % of vector genomes recovered in the elution fraction was 98%. Further, the values for the % of vector in the wash 2 (W2) fraction in test [5] and in [6] were 0.3% and 4.6%, respectively. The values for the % of vector in the flow-through (FT) fraction in test [9] and in [10] were 1.3% and 8.2%, respectively. The elution fraction yield (%) in [11] was determined as 98%; in test [12], 87%. The % recovery of loaded vector in the elution fraction (of total fractions) was found to be 51% in [14]; 0.6% in test [15]; 93% in test [16]; 18% in [17]; 30% in test [18]; 91% in test [19].
